Our source for the β-galactosidase activity (lacZ reporter, yeast two-hybrid, CPRG) (% reduction relative to wild type BnSCL1), β-galactosidase activity (lacZ reporter, yeast two-hybrid, CPRG) and GUS gene expression (transient assay in bombarded tobacco leaves, fluorometric) values is patent US20050278809A1.

In experiment [1] the target is GAL4 DB-HDA19 fusion (pDBLeu-HDA19), expressed in MaV203 yeast (yeast; Arabidopsis thaliana) (UniProt P04386). As to the kind of experiment: cell-based or functional assay.
Experiment [2] has as its target tobacco ortholog of the transcription repressor HDA19 (tobacco). As to the kind of experiment: cell-based or functional assay.
Where [3] appears, read: scale: % further reduction relative to the other mutants.
Setting [4] is: scale: % reduction relative to full-length bnKCP1.

With “GAL4 AD-BnSCL1^218-438 fusion (pPC86-BnSCL1^218-438), expressed in MaV203 yeast”, the β-galactosidase activity (lacZ reporter, yeast two-hybrid, CPRG) (% reduction relative to wild type BnSCL1) in experiment [1] was > 50. Further, in experiment [1] (setting [3]), the β-galactosidase activity (lacZ reporter, yeast two-hybrid, CPRG) is > 50.

In experiment [2], “GAL4BD-BnSCL1 fusion protein (effector plasmid GAL4-BnSCL1), expressed transiently in tobacco leaves (from UniProt P04386 1-147)” showed a GUS gene expression (transient assay in bombarded tobacco leaves, fluorometric) of 50 % decrease.

With “GAL4 AD-BnSCL1^1-217 fusion (pPC86-BnSCL1^1-217), expressed in MaV203 yeast”, in experiment [1], the β-galactosidase activity (lacZ reporter, yeast two-hybrid, CPRG) (% reduction relative to wild type BnSCL1) was > 50.

Turning to “GAL4 AD-BnSCL1^1-358 fusion (pPC86-BnSCL1^1-358), expressed in MaV203 yeast”, the β-galactosidase activity (lacZ reporter, yeast two-hybrid, CPRG) (% reduction relative to wild type BnSCL1) in experiment [1] is > 50.

For the substance “GAL4 AD-bnKCP1^1-160 fusion (pPC86-bnKCP1^1-160), expressed in MaV203 yeast (from UniProt Q84U09 1-160)”, in experiment [1] (setting [4]), the β-galactosidase activity (lacZ reporter, yeast two-hybrid, CPRG) was > 50.

Regarding “GAL4 AD-bnKCP1^1-80 fusion (pPC86-bnKCP1^1-80), expressed in MaV203 yeast (from UniProt Q84U09 1-80)”, in experiment [1] (setting [4]), the β-galactosidase activity (lacZ reporter, yeast two-hybrid, CPRG) was > 50.

For the substance “GAL4 AD-BnSCL1^1-145 fusion (pPC86-BnSCL1^1-145), expressed in MaV203 yeast”, the β-galactosidase activity (lacZ reporter, yeast two-hybrid, CPRG) (% reduction relative to wild type BnSCL1) in experiment [1] was > 50. In addition, the β-galactosidase activity (lacZ reporter, yeast two-hybrid, CPRG) in experiment [1] (setting [3]) was > 50.

With “GAL4 AD-BnSCL1^146-358 fusion (pPC86-BnSCL1^146-358), expressed in MaV203 yeast”, the β-galactosidase activity (lacZ reporter, yeast two-hybrid, CPRG) (% reduction relative to wild type BnSCL1) in experiment [1] is > 50.

For “GAL4 AD-BnSCL1^1-261 fusion (pPC86-BnSCL1^1-261), expressed in MaV203 yeast”, the β-galactosidase activity (lacZ reporter, yeast two-hybrid, CPRG) (% reduction relative to wild type BnSCL1) in experiment [1] is > 50.
